# Measured values as given in patent US20070298494.
# Test: BS3 chemical cross-linking in solution, SDS-PAGE, silver stain; association of the peptide with itself
protein,measurement,value
KKKKPARVGLGITTVLTMTTQSSGSRA [N-K4-M2GlyR],number of aggregates,SEQ ID No. 3 comprised 12 or more aggregates
